The labels stand for the following.
B1: LexA BD-Pxa2_NBD-CT [S. cerevisiae] / Gal4 AD-Pxa1_NBD-CT [S. cerevisiae] (parent complex)
chain 1: GNDMTADFITNRRLLVTASSSIGRFVELKRNIQQLRGIRLRLNKFNDLLDANKGDDEKEPRDERCIVEYDDSRIKFENIPLITPANQVLVPELSFDLKHGNHLLIIGPNGCGKSSLFRILGGLWPIRATPNKNHQSKLIMPRRTVDRDCAIFYLPQRPYMGNRSTFREQIIYPDSIEQFKERYHNDYDLGDADLIKILQLLDLEDLVTENMSLLLAQRTSKNDSQQLSTEDNQSPCAIKVRDAFSIVRNWSEELTIGVQQRLAMARMYYHKPKFAVLDECTSAVAPEMEQRMYENAQNFGISLISVCHRTSLWHFHNYLLKFDGKGGYQFGPFNPKERLCNEEKLLELNAILDQQVPLWERKLKDLTIAKESNIIRKSETNLNLFEKIEDPKTSKSNALFNANKGQRITSPTGQETSKRLPLFSQPSSSASSNLLRNNKSLNKKVKTKKEEGKER
chain 2: SRLMHSIKDISQLTGYTNRIFTLLSVLHRVHSLNFNYGAVPSILSIRTEDASRNSNLLPTTDNSQDAIRGTIQRNFNGIRLENIDVIIPSVRASEGIKLINKLTFQIPLHIDPITSKSNSIQDLSKANDIKLPFLQGSGSSLLILGPNGCGKSSIQRIIAEIWPVYNKNGLLSIPSENNIFFIPQKPYFSRGGTLRDQIIYPMSSDEFFDRGFRDKELVQILVEVKLDYLLKRGVGLTYLDAIADWKDLLSGGEKQRVNFARIMFHKPLYVVLDEATNAISVDMEDYLFNLLKRYRFNFISISQRPTLIKYHEMLLEIGENRDGKWQLQAVGTDEAITSIDNEIEELERKLERVKGWEDERTKLREKLEII
B2: LexA BD-Pxa2_NBD-CT [S. cerevisiae] / Gal4 AD-Pxa1_NBD [S. cerevisiae] (parent complex)
chain 1: B1 chain 1
chain 2: SRLMHSIKDISQLTGYTNRIFTLLSVLHRVHSLNFNYGAVPSILSIRTEDASRNSNLLPTTDNSQDAIRGTIQRNFNGIRLENIDVIIPSVRASEGIKLINKLTFQIPLHIDPITSKSNSIQDLSKANDIKLPFLQGSGSSLLILGPNGCGKSSIQRIIAEIWPVYNKNGLLSIPSENNIFFIPQKPYFSRGGTLRDQIIYPMSSDEFFDRGFRDKELVQILVEVKLDYLLKRGVGLTYLDAIADWKDLLSGGEKQRVNFARIMFHKPLYVVLDE

From publication PMC4132065 (2014) come the findings set out here.

Variants of B1 are the subject of one test. As to the kind of experiment: yeast two-hybrid, quantified with Yeast β-Galactosidase Assay Kit (Thermo); n = 3; parent: 190; read off a plot.
As to chain 1 Y328L, the response is around 38.
On the same count and under the same terms, in the case of chain 1 F333A it was around 69.

A further test covers variants of B2. As to the kind of experiment: yeast two-hybrid, quantified with Yeast β-Galactosidase Assay Kit (Thermo); n = 3; parent: 185; read off a plot.
Regarding chain 1 Y328L, the response was around 17.
Same read-out and setting: the value for chain 1 F333A was around 41.
